According to article PMC5118228 (EJNMMI Research, 2016):

Test: in vivo
Settings: male, athymic nu/nu, mouse, iv, total radioactivity
[1] = 0.3 nmol, uptake in Red blood cell
[2] = 1 nmol, uptake in Red blood cell
[3] = 3 nmol, uptake in Red blood cell

Compound: C[C@@H](O)[C@H](NC(=O)[C@@H]1CSSC[C@H](NC(=O)[C@@H](Cc2ccccc2)NC(=O)CN2CCN(CC(=O)O)CCN(CC(=O)O)CCN(CC(=O)O)CC2)C(=O)N[C@@H](Cc2ccc(O)cc2)C(=O)N[C@H](Cc2c[nH]c3ccccc23)C(=O)N[C@@H](CCCCN)C(=O)N[C@@H]([C@@H](C)O)C(=O)N1)C(=O)O [^111In-DOTATATE, metal not drawn]
- tissue uptake at 0.05 h (0.3 nmol, uptake in Pituitary): 0.3 %ID/g
- tissue uptake at 10 min (0.3 nmol, uptake in Pituitary): 0.2 ± 0.05 %ID/g
- tissue uptake at 0.5 h (0.3 nmol, uptake in Pituitary): 0.1 %ID/g
- tissue uptake at 1 h (0.3 nmol, uptake in Pituitary): < 0.05 %ID/g
- tissue uptake at 0.05 h (0.3 nmol, uptake in Plasma): 13.4 ± 1.4 %ID/g
- tissue uptake at 10 min (0.3 nmol, uptake in Plasma): 7.2 ± 2 %ID/g
- tissue uptake at 0.5 h (0.3 nmol, uptake in Plasma): 3.4 ± 0.5 %ID/g
- tissue uptake at 1 h (0.3 nmol, uptake in Plasma): 0.7 ± 0.2 %ID/g
- tissue uptake at 0.05 h [1]: 2.6 ± 0.6 %ID/g
- tissue uptake at 10 min [1]: 1.3 ± 0.4 %ID/g
- tissue uptake at 0.5 h [1]: 0.6 ± 0.1 %ID/g
- tissue uptake at 1 h [1]: < 0.05 %ID/g
- tissue uptake at 10 min (0.3 nmol, uptake in Stomach): 3.9 ± 0.4 %ID/g
- tissue uptake at 0.5 h (0.3 nmol, uptake in Stomach): 3.5 ± 0.2 %ID/g
- tissue uptake at 1 h (0.3 nmol, uptake in Stomach): 3.4 ± 0.8 %ID/g
- tissue uptake at 10 min (0.3 nmol, uptake in Tumor): 8 ± 1.2 %ID/g
- tissue uptake at 0.5 h (0.3 nmol, uptake in Tumor): 9.9 ± 3 %ID/g
- tissue uptake at 1 h (0.3 nmol, uptake in Tumor): 9.9 ± 0.7 %ID/g
- tissue uptake at 0.5 h (1 nmol, uptake in Adrenals): 0.5 ± 0.09 %ID/g
- tissue uptake at 1 h (1 nmol, uptake in Adrenals): 0.5 ± 0.05 %ID/g
- tissue uptake at 0.05 h (1 nmol, uptake in Kidney): 17.5 ± 9.7 %ID/g
- tissue uptake at 10 min (1 nmol, uptake in Kidney): 14.2 ± 7 %ID/g
- tissue uptake at 0.5 h (1 nmol, uptake in Kidney): 6 ± 1.8 %ID/g
- tissue uptake at 1 h (1 nmol, uptake in Kidney): 14.1 ± 3.4 %ID/g
- tissue uptake at 0.05 h (1 nmol, uptake in Muscles): 1.2 ± 0.4 %ID/g
- tissue uptake at 10 min (1 nmol, uptake in Muscles): 1 ± 0.5 %ID/g
- tissue uptake at 0.5 h (1 nmol, uptake in Muscles): 0.2 ± 0.09 %ID/g
- tissue uptake at 1 h (1 nmol, uptake in Muscles): < 0.05 %ID/g
- tissue uptake at 0.05 h (1 nmol, uptake in Pancreas): 3.5 ± 2.4 %ID/g
- tissue uptake at 0.5 h (1 nmol, uptake in Pancreas): 0.7 ± 0.2 %ID/g
- tissue uptake at 1 h (1 nmol, uptake in Pancreas): 1.5 ± 0.3 %ID/g
- tissue uptake at 0.05 h (1 nmol, uptake in Pituitary): 0.1 ± 0.09 %ID/g
- tissue uptake at 10 min (1 nmol, uptake in Pituitary): 0.8 ± 1.4 %ID/g
- tissue uptake at 0.5 h (1 nmol, uptake in Pituitary): < 0.05 %ID/g
- tissue uptake at 1 h (1 nmol, uptake in Pituitary): < 0.05 %ID/g
- tissue uptake at 0.05 h (1 nmol, uptake in Plasma): 11.3 ± 4.9 %ID/g
- tissue uptake at 10 min (1 nmol, uptake in Plasma): 7.6 ± 3.1 %ID/g
- tissue uptake at 1 h (1 nmol, uptake in Plasma): 0.6 ± 0.2 %ID/g
- tissue uptake at 0.05 h [2]: 2.3 ± 0.4 %ID/g
- tissue uptake at 10 min [2]: 1.3 ± 0.5 %ID/g
- tissue uptake at 0.5 h [2]: 0.3 ± 0.1 %ID/g
- tissue uptake at 1 h [2]: 0.4 ± 0.1 %ID/g
- tissue uptake at 0.05 h (1 nmol, uptake in Stomach): 2.4 ± 1.1 %ID/g
- tissue uptake at 0.5 h (1 nmol, uptake in Stomach): 0.8 ± 0.2 %ID/g
- tissue uptake at 0.05 h (1 nmol, uptake in Tumor): 5.6 ± 2 %ID/g
- tissue uptake at 10 min (1 nmol, uptake in Tumor): 6.7 ± 2.9 %ID/g
- tissue uptake at 0.5 h (1 nmol, uptake in Tumor): 2.9 ± 0.6 %ID/g
- tissue uptake at 1 h (1 nmol, uptake in Tumor): 7 ± 1.1 %ID/g
- tissue uptake at 10 min (3 nmol, uptake in Adrenals): 1.1 ± 0.7 %ID/g
- tissue uptake at 0.5 h (3 nmol, uptake in Adrenals): 0.6 ± 0.2 %ID/g
- tissue uptake at 1 h (3 nmol, uptake in Adrenals): 0.3 ± 0.06 %ID/g
- tissue uptake at 0.05 h (3 nmol, uptake in Kidney): 19.1 ± 3.1 %ID/g
- tissue uptake at 10 min (3 nmol, uptake in Kidney): 14.6 ± 2.9 %ID/g
- tissue uptake at 0.5 h (3 nmol, uptake in Kidney): 14.5 ± 1.1 %ID/g
- tissue uptake at 1 h (3 nmol, uptake in Kidney): 14.7 ± 2.1 %ID/g
- tissue uptake at 0.05 h (3 nmol, uptake in Muscles): 1.3 ± 0.3 %ID/g
- tissue uptake at 10 min (3 nmol, uptake in Muscles): 0.8 ± 0.3 %ID/g
- tissue uptake at 0.5 h (3 nmol, uptake in Muscles): 0.3 ± 0.1 %ID/g
- tissue uptake at 1 h (3 nmol, uptake in Muscles): < 0.05 %ID/g
- tissue uptake at 0.05 h (3 nmol, uptake in Pancreas): 2.2 ± 0.4 %ID/g
- tissue uptake at 10 min (3 nmol, uptake in Pancreas): 1.6 ± 0.2 %ID/g
- tissue uptake at 0.5 h (3 nmol, uptake in Pancreas): 1 ± 0.2 %ID/g
- tissue uptake at 1 h (3 nmol, uptake in Pancreas): 0.8 ± 1 %ID/g
- tissue uptake at 0.05 h (3 nmol, uptake in Pituitary): 0.2 ± 0.06 %ID/g
- tissue uptake at 10 min (3 nmol, uptake in Pituitary): 0.1 ± 0.06 %ID/g
- tissue uptake at 0.5 h (3 nmol, uptake in Pituitary): 0.08 ± 0.06 %ID/g
- tissue uptake at 1 h (3 nmol, uptake in Pituitary): < 0.05 %ID/g
- tissue uptake at 0.05 h (3 nmol, uptake in Plasma): 13.8 ± 1.7 %ID/g
- tissue uptake at 10 min (3 nmol, uptake in Plasma): 8.4 ± 0.9 %ID/g
- tissue uptake at 1 h (3 nmol, uptake in Plasma): 0.6 ± 0.2 %ID/g
- tissue uptake at 10 min [3]: 2.4 ± 0.3 %ID/g
- tissue uptake at 0.5 h [3]: 0.6 ± 0.2 %ID/g
- tissue uptake at 1 h [3]: < 0.05 %ID/g
- tissue uptake at 0.05 h (3 nmol, uptake in Stomach): 3.2 ± 0.5 %ID/g
- tissue uptake at 10 min (3 nmol, uptake in Stomach): 2.3 ± 0.2 %ID/g
- tissue uptake at 0.5 h (3 nmol, uptake in Stomach): 1.5 ± 0.6 %ID/g
- tissue uptake at 1 h (3 nmol, uptake in Stomach): 1.6 ± 0.7 %ID/g
- tissue uptake at 0.05 h (3 nmol, uptake in Tumor): 2.9 ± 1.1 %ID/g
